Source: article PMC10885103 (2023)
Bridges are numbered along the chain shown (N, C = ends). Where no end group is shown, it is not given here. [ ]: non-standard residue; d: D form.

Target: T1, TNFR-1 CRD2 72-116 (Homo sapiens, UniProt P19438)
T1 chain: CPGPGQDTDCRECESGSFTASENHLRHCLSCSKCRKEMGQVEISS
Test: grating-coupled interferometry

[dC](cysteinyl)[dF][dH][dC][dI][dW][dL]G[dD][dE][dC] (disulfide 4-11; also: CRD2 with C-terminal biotin linker) [d-TCPB]
Kd: 1000 nM
